The values that follow come from paper PMC6504924.

Test [1] has as its target NanoLuc:VEGFR2 fusion on cells (UniProt P35968). Kind of test: FRET or BRET; saturation binding on live HEK293T cells transiently expressing a NanoLuc:RTK fusion; increasing concentrations of DY605-labeled growth factor with and without excess (0.5 µM) unlabeled equivalent; 1.5 h at room temperature, OptiMEM; apparent affinities (EC50). Background: BRET reads energy transfer from a luciferase to a nearby fluorophore.

Test [2] shares this target.

Chain of NanoLuc:VEGFR2 fusion on cells (P35968 20-1356): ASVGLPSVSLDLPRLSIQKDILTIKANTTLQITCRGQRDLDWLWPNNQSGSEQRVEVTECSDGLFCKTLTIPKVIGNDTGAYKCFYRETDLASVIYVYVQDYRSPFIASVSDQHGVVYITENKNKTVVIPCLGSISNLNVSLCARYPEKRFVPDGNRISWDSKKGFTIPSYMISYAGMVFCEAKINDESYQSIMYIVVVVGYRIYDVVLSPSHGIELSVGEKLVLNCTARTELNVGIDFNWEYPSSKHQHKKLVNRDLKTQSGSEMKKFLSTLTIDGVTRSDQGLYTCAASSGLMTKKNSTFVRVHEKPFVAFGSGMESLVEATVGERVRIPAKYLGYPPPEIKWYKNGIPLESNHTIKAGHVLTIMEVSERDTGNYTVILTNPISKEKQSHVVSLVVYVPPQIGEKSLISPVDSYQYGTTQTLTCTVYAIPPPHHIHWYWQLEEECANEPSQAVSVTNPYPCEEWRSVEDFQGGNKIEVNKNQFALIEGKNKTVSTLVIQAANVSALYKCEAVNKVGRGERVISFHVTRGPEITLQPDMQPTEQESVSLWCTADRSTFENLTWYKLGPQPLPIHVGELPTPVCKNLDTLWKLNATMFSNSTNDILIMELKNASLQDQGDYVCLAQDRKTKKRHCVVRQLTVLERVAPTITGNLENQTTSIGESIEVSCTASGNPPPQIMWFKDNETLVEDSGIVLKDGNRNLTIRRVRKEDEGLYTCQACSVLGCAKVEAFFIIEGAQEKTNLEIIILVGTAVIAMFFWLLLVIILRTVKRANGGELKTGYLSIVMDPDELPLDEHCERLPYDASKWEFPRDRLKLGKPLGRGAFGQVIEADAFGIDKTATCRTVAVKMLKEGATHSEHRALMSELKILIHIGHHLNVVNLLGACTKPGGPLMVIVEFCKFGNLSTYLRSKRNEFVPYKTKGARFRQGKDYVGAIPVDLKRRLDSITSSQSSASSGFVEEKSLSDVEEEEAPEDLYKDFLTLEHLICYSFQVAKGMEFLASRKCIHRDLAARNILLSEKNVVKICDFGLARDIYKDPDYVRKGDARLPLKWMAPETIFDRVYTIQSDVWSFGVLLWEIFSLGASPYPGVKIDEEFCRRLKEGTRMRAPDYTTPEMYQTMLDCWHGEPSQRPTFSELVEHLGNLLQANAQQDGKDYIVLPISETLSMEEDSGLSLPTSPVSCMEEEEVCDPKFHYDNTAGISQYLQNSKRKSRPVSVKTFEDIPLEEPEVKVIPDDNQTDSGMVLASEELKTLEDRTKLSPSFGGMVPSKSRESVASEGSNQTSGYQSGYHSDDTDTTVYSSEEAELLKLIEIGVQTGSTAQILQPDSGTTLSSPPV

As for “VEGF165a homodimer labeled with 2-fold molar excess of DY605-NHS-ester (ligand)”, the EC50 (commonly the midpoint of the concentration-response curve) in test [1] came to 1.2 nM. For the same substance, the NFAT-luciferase reporter, 6 h stimulation; EC50 as fold against the unlabeled counterpart (printed as 'fold lower', weaker response) in test [2] was > 120 fold.

As for “CBT-labeled VEGF165a homodimer (vascular endothelial growth factor isoform VEGF165a labeled with DY605-PEG-CBT on the N-terminal cysteine) (ligand)”, in test [1], the EC50 is 0.045 nM. Regarding “VEGF165a homodimer labeled with 5-fold molar excess of DY605-NHS-ester (ligand)”, in test [1], the EC50 is 12 nM. In test [2], the NFAT-luciferase reporter, 6 h stimulation; EC50 as fold against the unlabeled counterpart (printed as 'fold lower', weaker response) is > 120 fold.
